Source: article PMC11066842, “Formation of Calprotectin Inhibits Amyloid Aggregation of S100A8 and S100A9 Proteins” (ACS Chemical Neuroscience, 2024)

B1: S100A9 (calgranulin B) (natural protein)
chain: TCKMSQLERNIETIINTFHQYSVKLGHPDTLNQGEFKELVRKDLQNFLKKENKNEKVIEHIMEDLDTNADKQLSFEEFIMLMARLTWASHEKMHEGDEGPGHHHKPGLGEGTP
notes: S100A9 (calgranulin B); construct His6-SUMO-S100A9 in pET28a, tag removed by SENP1; also called S100A9 subunit of calprotectin (CP); source: E. coli BL21(DE3), purified (Ni2+ Sepharose, SENP1 cleavage of His6-SUMO, second Ni2+ column, Superdex 75 SEC); not shown: His6, N-terminal, cleaved; SUMO, N-terminal, cleaved

Experiments:
[1] = target: the molecule itself; assay: dynamic light scattering; 100 uM S100A8, 100 uM S100A9, 50 uM CP; 50 mM HEPES pH 7.4; 8 °C; hydrodynamic radius compared with published radii of S100 dimers
S100A9 (calgranulin B) = target: B1; assay: SEC; Tricorn 10/300 column with Superdex 75 prep grade, 50 mM HEPES pH 7.4, 1 mM EDTA, 1 mM TCEP, no calcium; CP formed from an equimolar mix of S100A8 and S100A9 by acid denaturation (pH 2.0-2.5), stepwise dialysis and anion exchange; details: both partners purified

Row | binding result (S100A9 (calgranulin B)) | Binder | binding result [1]
1 | – | B1 | binds
2 | binds | S100A8 (calgranulin A) (natural protein, S100A8 (calgranulin A); construct His6-SUMO-S100A8 in pET28a, tag removed by SENP1; also called S100A8 subunit of calprotectin (CP); source: E. coli BL21(DE3), purified (Ni2+ Sepharose, SENP1 cleavage of His6-SUMO, second Ni2+ column, Superdex 75 SEC); not shown: His6, N-terminal, cleaved; SUMO, N-terminal, cleaved) MLTELEKALNSIIDVYHKYSLIKGNFHAVYRDDLKKLLETECPQYIRKKGADVWFKELDINTDGAVNFQEFLILVIKMGVAAHKKSHEESHKE | binds
